# Source: patent US10786536B2, “Cardiac neural crest cells and methods of use thereof” (VESTION, INC., priority 2013, dated 2020)
# Entries after “also recorded” stand apart in the source; their conditions may differ.
# Legend:
# Format in all cases: cell-based, mouse
# [1] = test system: EGFP^(+) cells (NCC^kit); assay: neonatal cKit^CreERT2/IRG myocardial explant culture with or without MSC feeders, live-cell quantification of EGFP^(+) cells
# Protocol: To study the mechanisms controlling migration and proliferation in postnatal cardiac NCC^kit clones, 2-day old cKit^CreERT2/IRG neonates administered a single subcutaneous injection of 50 μl of tamoxifen. The next day, 3-day old postnatal hearts (PN3) were harvested, washed in ice-cold HBSS and cleaned from unwanted tissues under a stereomicroscope. They were then transferred in a tissue-cultured hood and, after additional washing steps with DMEM under sterile conditions, were minced into ˜1 mm^3 fragments and digested in a solution of DMEM/F12, 20% FBS, 1% penicillin/streptomycin and 200 units/ml Collagenase-Type II solution at 37° C. Following that, tissue explants were collected and washed twice with DMEM. Single tissue fragments were then picked under a stereomicroscope using a pipette, and cultured individually in single wells of gelatin-coated 24-well plates, with or without 1×10^5 MSCs feeders. Samples were fed every other day. The basic myocardial explant feeding medium consisted of DMEM/F12, 15% FBS, 1% penicillin/streptomycin, 1% β-mercaptoethanol, 1000 units/ml recombinant mouse LIF, 1 ng/ml recombinant mouse bFGF, and 0.1 mM nonessential amino acids. The impact of SCF was tested by supplementing the medium with 100 ng/ml recombinant murine SCF. For cKit neutralization, 100 ng/ml of rat anti-murine cKit antibody were supplemented to the medium. For assessing the role of Sdf1/Cxcr4, AMD3100 was supplemented to the medium, at a final concentration of 1 μM. Samples were then monitored daily, and clonal growth of EGFP^(+) cells was quantified every other day for 5-8 consecutive days, under a fluorescent microscope.
# Myocardial explants from these animals were collected the following day, and were cultured in the presence or absence of MSC feeders. Swine MSCs were isolated and expanded from a single, healthy Yorkshire donor as previously described. Briefly, bone marrow was obtained from the iliac crest, and aspirates were passed through a density gradient to eliminate undesired cell types and were plated with 25 ml MEM Alpha media containing 20% fetal Bovine Serum in 162 cm^2 culture flasks. At 5-7 days after plating, non-adherent cells were washed away during medium changes and the remaining, plastic adherent, purified MSC population was expanded in culture. All used cells were harvested when they reached 80-90% confluence at passage 3-4, and inactivated for 3 h at 37° C. with 10 μg/ml of mitomycin C. Inactivated porcine MSC feeders were collected by trypsinization and cryopreserved in liquid nitrogen until use. For all experiments, MSCs feeders were seeded at a concentration of 2×10^5 MSCs/ml a day before use. The responses of EGFP^(+) cells under different culture conditions were monitored daily and quantified via live-cell fluorescence imaging every other day.
# The effect of MSCs on NCC^kit migration was explored because recent studies reveal a chemotactic role of Sdf1/Cxcr4 axis on NCCs. Myocardial explant cultures were generated, as described above, and screened the emergence of EGFP^(+) cells in response to AMD3100, an inhibitor of the Sdf1/Cxcr4 axis. […] Thus, Sdf1/Cxcr4 axis regulates migration and differentiation of NCC^kit.
# [2] = test system: iPSC^kit-derived embryoid bodies; assay: in-vitro lineage tracing during cardiogenic differentiation of iPSC^kit-derived embryoid bodies pulsed with 4-OH tamoxifen
# Description: First, to specifically address the relationship between CNC^kit and the cKit^+/Nkx2.5^+ lineage purified from mouse ES and iPSCs-derived cardiac mesoderm, iPSCs from cKit^CreERT2/IRG adult tail-tip fibroblasts (iPSC^kit) were established. iPSC^kit stably express DsRed with no leakage of EGFP (<30 passages). As with the cKit^CreERT2/IRG mice DsRed is irreversibly replaced by EGFP in iPSC^kit-derivatives upon Cre-mediated recombination, which occurs in response to treatment with 4-OH tamoxifen. […] Thus, iPSC^kit are suitable for in-vitro lineage tracing of cKit-expressing cells. Cardiomyocyte differentiation was induced by treatment of iPSC^kit-derived embryoid bodies (EB) with ascorbic acid as previously described (FIG. 17). Successful differentiation was reflected in the development of spontaneously contracting cardiomyocytes. To genetically trace whether any of the generated cardiomyocytes were progeny of cKit^+ progenitors, EBs were pulsed with 4-OH tamoxifen at selected time-points during differentiation and monitored the emergence of spontaneously beating EGFP^+ derivatives (FIG. 17). Indeed, EGFP^+ derivatives were detected in ˜45% of the spontaneously beating EBs, confirming previous findings that mouse pluripotent stem cells can be consistently directed to generate cardiomyocytes via a cKit^+ cardiomyocyte progenitor lineage (data not shown). […]
# [3] = test system: iPSC^kit; assay: quantitative gene-expression analysis during cardiogenic differentiation of iPSC^kit; conditions: noggin-treated iPSC^kit
molecule,measurement,setting,value
c1cc(CN2CCCNCCNCCCNCC2)ccc1CN1CCCNCCNCCCNCC1 [AMD3100],differentiation of EGFP^(+) cells into spontaneously beating/contracting cells,"[1]; AMD3100 1 μM, compared to non-AMD3100 treated groups",massive differentiation into spontaneously contracting cardiomyocytes; also recorded: dramatic increase in the numbers of spontaneously beating EGFP^(+) cells
same,migration of EGFP^(+) cells from the cultured explants,[1]; explants on MSC feeders,blocked the migration of EGFP^(+) cells; also recorded: blocking cell migration
same,number / abundance of EGFP^(+) cells,"[1]; explants on MSC feeders, compared to MSCs+SCF group, AMD3100 1 μM, anti-cKit antibody 100 ng/ml",significant reduction in the abundance of EGFP^(+) cells; also recorded: significantly decreased the number of EGFP^(+) cells
O=C1O[C@H]([C@@H](O)CO)C(O)=C1O [ascorbic acid],spontaneously beating EBs with EGFP^+ derivatives,[2]; cardiomyocyte differentiation induced by ascorbic acid,~45%
"noggin: BMP antagonist used for noggin-mediated antagonism of BMP signaling (protein, UniProt Q13253 28-232, looked up) Noggin: QHYLHIRPAPSDNLPLVDLIEHPDPIFDPKEKDLNETLLRSLLGGHYDPGFMATSPPEDRPGGGGGAAGGAEDLAELDQLLRQRPSGAMPSEIKGLEFSEGLAQGKKQRLSKKLRRKLQMWLWSQTFCPVLYAWNDLGSRFWPRYVKVGSCFSKRSCSVPEGMVCKPSKSVHLTVLRWRCQRRGGQRCGWIPIQYPIISECKCSC",generation of EGFP^+ cardiomyocytes,"[2]; BMP antagonism of iPSC^kit, EBs pulsed with 4-OH tamoxifen",resulted in the generation of EGFP^+ cardiomyocytes
same,expression of the epicardial progenitor cell markers WT1 and Tbx18,[3],transiently repressed
same,"expression of cKit, Wnt1, Snai2, Pax3 and MITF-H",[3]; selected time-points,dramatic upregulation
SCF: recombinant murine SCF supplemented to the medium at 100 ng/ml (protein) KEICGNPVTDNVKDITKLVANLPNDYMITLNYVAGMDVLPSHCWLRDMVIQLSLSLTTLLDKFSNISEGLSNYSIIDKLGKIVDDLVLCMEENAPKNIKESPKRPETRSFTPEEFFSIFNRSIDAFKDFMVASDTSDCVLSSTLGPEKDSRVSVTKPFMLPPVA,increase in proliferative capacity of EGFP^(+) cells,"[1]; 100 ng/ml recombinant murine SCF, MSCs present",3.5 fold
same,proliferation of EGFP^(+) cells,[1]; SCF in the absence of MSCs,no significant differences were detected
same,migration of EGFP^(+) cells from the cultured explants,[1]; explants on MSC feeders,neither SCF nor cKit affected EGFP^(+) cell migration
